# In paper PMC10173337:
# Values joined by “and” are separate entries in the source; they are usually repeats but may differ in a detail not shown here. Identical values can stand only once.
# Target: eight amino acid-mutated FcγRIIIa without glycosylation (ligand of the TSKgel FcR-IIIA-NPR column) (UniProt P08637)
# Assay: FcγRIIIa affinity column chromatography
# Sequence of UniProt P08637 (P08637 17-208, change not shown): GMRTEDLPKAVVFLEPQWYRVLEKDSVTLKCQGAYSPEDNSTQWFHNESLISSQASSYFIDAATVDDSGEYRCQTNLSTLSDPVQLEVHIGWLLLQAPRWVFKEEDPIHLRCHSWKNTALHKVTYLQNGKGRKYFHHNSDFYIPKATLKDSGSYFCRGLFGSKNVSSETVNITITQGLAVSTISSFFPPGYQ
row,Substance,retention time
1,full-length cetuximab 3 (antibody),10.7 min and 13.3 min and 15.1 min
2,full-length rituximab with full-length glycan 8 (antibody),15.6 min
3,full-length rituximab with trisaccharide 7 (antibody),4.3 min
4,Fc fragment of rituximab after papain digestion 5 (domain or fragment),11.2 min and 13.6 min and 16 min
5,full-length mogamulizumab 4 (antibody),12.1 min and 14.8 min and 17.2 min
6,full-length trastuzumab 2 (antibody),9.8 min and 12.2 min and 14.7 min
7,Fc fragment of rituximab with full-length glycan 10 (domain or fragment),16.4 min
8,full-length rituximab 1 (antibody),10.2 min and 12.6 min and 15 min
